PMC8063937, “A Novel Cysteine Protease Inhibitor of Naegleria fowleri That Is Specifically Expressed during Encystation and at Mature Cysts” (Pathogens, 2021)

T1: papain (UniProt P00784 134-345)
T1 construct: Papain, cysteine protease bought from Sigma; source: bought: Sigma
T1 sequence (looked up): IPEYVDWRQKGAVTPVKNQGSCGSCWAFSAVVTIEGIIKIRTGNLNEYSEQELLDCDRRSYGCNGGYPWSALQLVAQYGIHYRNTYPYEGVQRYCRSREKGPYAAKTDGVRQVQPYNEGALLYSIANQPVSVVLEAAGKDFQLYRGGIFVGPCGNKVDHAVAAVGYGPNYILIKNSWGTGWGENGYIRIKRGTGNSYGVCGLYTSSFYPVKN

T2: recombinant cathepsin-B cysteine protease of N. fowleri (NfCB) (Naegleria fowleri)
T2 chain: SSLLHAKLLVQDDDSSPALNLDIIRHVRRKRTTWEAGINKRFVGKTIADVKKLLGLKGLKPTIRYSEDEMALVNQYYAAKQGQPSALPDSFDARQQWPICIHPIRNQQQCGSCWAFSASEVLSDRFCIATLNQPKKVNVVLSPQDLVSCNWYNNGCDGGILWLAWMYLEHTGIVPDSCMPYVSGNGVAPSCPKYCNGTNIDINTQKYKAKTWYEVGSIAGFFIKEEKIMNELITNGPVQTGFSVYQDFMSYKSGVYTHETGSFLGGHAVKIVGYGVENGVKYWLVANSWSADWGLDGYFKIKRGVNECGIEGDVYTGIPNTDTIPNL

B1: recombinant cysteine protease inhibitor of Naegleria fowleri (NfCPI), lacking the signal peptide (natural protein)
chain: ALPIATNVIPGGRQPISNQTLIEELTTFIPKASSNGVCRVTRVLSAQQQVVAGTIYYLVVEVSTSCDATSSQTFCEKLKIFRPLVTRSVENPQLQLQKEQRVDCNTP
notes: ORF of 136 residues; the forward primer encodes LPIATNV as its first residues, the reverse primer ends at the stop codon; cDNA from strain Carter NF69 (ATCC 30215); also called recombinant NfCPI; source: E. coli M15 (pREP14), pQE-9, purified (Ni-NTA)

Key:
[1] = target: recombinant cathepsin-B-like cysteine protease of N. fowleri (NfCBL) (Naegleria fowleri); experiment: enzyme inhibition assay (residual activity on a fluorogenic substrate); 10 nM enzyme incubated with 0-100 nM NfCPI in 50 mM sodium acetate pH 6.0, 20 min, RT; substrate Z-LR-MCA in 50 mM sodium acetate pH 5.0 with 10 mM DTT; Ki calculated from IC50 and Km, non-linear regression
[2] = target: the molecule itself; experiment: non-reducing PAGE; purified NfCPI, with 0-10% SDS, without β-mercaptoethanol, with or without heating at 100 °C for 5 min
[3] = target: T1, papain; experiment: enzyme inhibition assay (residual activity on a fluorogenic substrate); 10 nM enzyme incubated with 0-100 nM NfCPI in 50 mM sodium acetate pH 6.0, 20 min, RT; substrate Z-LR-MCA in 50 mM sodium acetate pH 5.0 with 10 mM DTT; Ki calculated from IC50 and Km, non-linear regression; conditions: both partners purified
[4] = target: T2, recombinant cathepsin-B cysteine …; experiment: as above; conditions: both partners purified

Row | Molecule | Ki [1] [nM] | stoichiometry N [2] | Ki [3] [nM] | Ki [4] [nM]
1 | recombinant cysteine protease inhibitor of Naegleria fowleri (NfCPI), lacking the signal peptide (from UniProt A0A6A5BTM4 30-136) (natural protein) | 0.144 |  |  | 
2 | B1 |  | 2 | 0.259 | 0.193
